Test results reported in US9308238B2, “Compositions and methods for modulating EMT and uses thereof” (Whitehead Institute for Biomedical Research, priority 2010, dated 2016).

Test system: basal MECs
Assay: Mammosphere assay, primary basal cells after pre-treatment
Format: cell-based, human
Conditions: 5 day pre-treatment, assay without further treatment
From the text: FIGS. 7A-7G. Migratory and self-renewal properties in primary MECs: inhibition and induction. (FIG. 7A) Mammosphere Assay: microscopy images of mammospheres and quantification of mammosphere formation by purified basal, luminal and unsorted MEC populations. Primary spheres were allowed to form over a period of 7 days, dissociated and seeded for secondary sphere formation, n(mammosphere)/1000 cells, n=48, (FIG. 7B) Migration Assay: microscopy images of migrated cells in Boyden Chambers and quantification, n=6. (FIG. 7C) Mammosphere Assay: basal cells were seeded into assay after a 5 day pre-treatment with TGF-beta inhibitors A83-01 and […] (SB43, both inhibitors at 10 μM) as well as recombinant SFRP1 (1 μg/ml), n(mammospheres)/1000 cells, n=6. (FIG. 7D) Migration Assay: basal cells were seeded into migration assays treated after 5 day pre-treatment as described in (C), n=24. (FIG. 7E) Mammosphere Assay: luminal cells were seeded into the assay following a 5 day pre-treatment with TGF-beta 1 (5 ng/ml), Wnt5a (250 ng/ml), anti-E-Cadherin antibody (1 μg/ml) plus anti-DKK1 antibody (10 μg/ml), and a cocktail of all factors added together (iEMT-II), n(mammospheres)/1000 cells, n=24. (FIG. 7F) Migration Assay: luminal cells were seeded into Boyden Chambers following a 5 day pre-treatment as described in (E), n=6. […]

B1: SFRP1: Recombinant human SFRP1 protein (R&D Systems), secreted decoy receptor binding canonical and non-canonical Wnt ligands (protein, UniProt Q8N474 32-314, looked up)
Secreted frizzled-related …: SEYDYVSFQSDIGPYQSGRFYTKPPQCVDIPADLRLCHNVGYKKMVLPNLLEHETMAEVKQQASSWVPLLNKNCHAGTQVFLCSLFAPVCLDRPIYPCRWLCEAVRDSCEPVMQFFGFYWPEMLKCDKFPEGDVCIAMTPPNATEASKPQGTTVCPPCDNELKSEAIIEHLCASEFALRMKIKEVKKENGDKKIVPKKKKPLKLGPIKKKDLKKLVLYLKNGADCPCHQLDNLSHHFLIMGRKVKSQYLLTAIHKWDKKNKEFKNFMKKMKNHECPTFQSVFK
  reduction of mammosphere formation: 80-90%
